Source: patent publication US20170137467A1 (CHROMOTEK, published 2017)
Square brackets hold non-standard residues; d marks the D form. GABA = NCCCC(=O)O

How the values were obtained:
Assay in all cases: peptide library pulldown on immobilized Nb, LC-MS of supernatant; ratio vs GFP-Nb control (1 = not captured, 0 = captured)
[1] = molecular target: T1, BC2T W10G library peptide (human)
T1 construct: also called BC2TW10X: G
T1 peptide: Ac-PDRKAAVSHGQQ-NH2
Procedure, shortened: (§1)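 Unbound peptide left in supernatant after 1 h pulldown in PBS/0.01% CHAPS measured by reversed-phase LC-MS (8–30% eluent B gradient, 20 min).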

[2] = molecular target: T2, BC2T H9(I/L) library peptide, version 1 (N-terminal acetyl, C-terminal amide)
T2 construct: Ile and Leu versions are isobaric; two versions resolved but not assigned; also called I/L1
Procedure, shortened: as §1

[3] = molecular target: T3, BC2T S8H library peptide (human)
T3 construct: also called BC2TS8X: H
T3 peptide: Ac-PDRKAAVHHWQQ-NH2
Procedure, shortened: as §1

[4] = molecular target: T4, BC2T W10M library peptide (human)
T4 construct: also called BC2TW10X: M
T4 peptide: Ac-PDRKAAVSHMQQ-NH2
Procedure, shortened: as §1

[5] = molecular target: T5, BC2T S8E library peptide (human)
T5 construct: also called BC2TS8X: E
T5 peptide: Ac-PDRKAAVEHWQQ-NH2
Procedure, shortened: as §1

[6] = molecular target: T6, BC2T Q12Y library peptide (human)
T6 peptide: Ac-PDRKAAVSHWQY-NH2
Procedure, shortened: as §1

[7] = molecular target: T7, BC2T Q11P library peptide (human)
T7 peptide: Ac-PDRKAAVSHWPQ-NH2
Procedure, shortened: as §1

[8] = molecular target: T8, BC2T W10T library peptide (human)
T8 construct: also called BC2TW10X: T
T8 peptide: Ac-PDRKAAVSHTQQ-NH2
Procedure, shortened: as §1

[9] = molecular target: T9, BC2T Q12S library peptide (human)
T9 peptide: Ac-PDRKAAVSHWQS-NH2
Procedure, shortened: as §1

[10] = molecular target: T10, BC2T S8V library peptide (human)
T10 construct: also called BC2TS8X: V
T10 peptide: Ac-PDRKAAVVHWQQ-NH2
Procedure, shortened: as §1

[11] = molecular target: T11, BC2T Q11E library peptide (human)
T11 peptide: Ac-PDRKAAVSHWEQ-NH2
Procedure, shortened: as §1

[12] = molecular target: T12, BC2T S8C* library peptide (human, also: Abu described as gamma-amino butyric acid)
T12 construct: also called BC2TS8X: C*; C(Abu)
T12 peptide: Ac-PDRKAAV[GABA]HWQQ-NH2
Procedure, shortened: as §1

[13] = molecular target: T13, BC2T Q12D library peptide (human)
T13 peptide: Ac-PDRKAAVSHWQD-NH2
Procedure, shortened: as §1

[14] = molecular target: T14, BC2T Q12C* library peptide (human, SMILES …)
T14 construct: also called C(Abu)
T14 peptide: Ac-PDRKAAVSHWQ[GABA]-NH2
Procedure, shortened: as §1

[15] = molecular target: T15, BC2T W10N library peptide (human)
T15 construct: also called BC2TW10X: N
T15 peptide: Ac-PDRKAAVSHNQQ-NH2
Procedure, shortened: as §1

[16] = molecular target: T16, BC2T W10D library peptide (human)
T16 construct: also called BC2TW10X: D
T16 peptide: Ac-PDRKAAVSHDQQ-NH2
Procedure, shortened: as §1

[17] = molecular target: T17, BC2T S8T library peptide (human)
T17 construct: also called BC2TS8X: T
T17 peptide: Ac-PDRKAAVTHWQQ-NH2
Procedure, shortened: as §1

[18] = molecular target: T18, BC2T H9A library peptide (human)
T18 peptide: Ac-PDRKAAVSAWQQ-NH2
Procedure, shortened: as §1

[19] = molecular target: T19, BC2T Q12T library peptide (human)
T19 peptide: Ac-PDRKAAVSHWQT-NH2
Procedure, shortened: as §1

ratio [1]: 1.2
ratio [2]: 0.4
ratio [3]: 0.9
ratio [4]: 1.1
ratio [5]: 0.9
ratio [6]: 0.2
ratio [7]: 0.9
ratio [8]: 1.1
ratio [9]: 0.1
ratio [10]: 0.2
ratio [11]: 0.4
ratio [12]: 0.1
ratio [13]: 0.8
ratio [14]: 0.1
ratio [15]: 1.2
ratio [16]: 1.1
ratio [17]: 0.1
ratio [18]: 0.3
ratio [19]: 0.1
B1: BC2-Nb(R106E) (VHH)
VHH: QVQLVESGGGLVQPGGSLTLSCTASGFTLDHYDIGWFRQAPGKEREGVSCINNSDDDTYYADSVKGRFTIFMDNAKDTVYLQMNSLKPEDTAIYYCAEARGCKRGEYEYDFWGQGTQVTVSS
notes: Headlock mutant; immobilized on beads in the library pulldown
